Source: patent US20240247080A1, “GLP1/GIP/NPY2 RECEPTOR TRIPLE AGONISTS” (Boehringer Ingelheim International GmbH, priority 2022, published 2024)
Where a chain is given by its changes, count along the chain named. Starred links: 1 amine or outer side, 2 acyl side, 3 side chain; linkers in the order of their positions; H or OH if unused. Non-standard residues stand in square brackets, D forms with d. Groups on a side chain read outwards from the residue. No end group written: not given here. *: point of attachment. C20 diacid = O=C(O)CCCCCCCCCCCCCCCCCCC(=O)*; γGlu = O=C(O)[C@H](CCC(=O)[*:2])N[*:1]; εLys = N[C@@H](CCCCN[*:1])C(=O)[*:2]; AEEA = NCCOCCOCC(=O)O; Aib = CC(C)(N)C(=O)O

B1: Compound 215 (peptide)
peptide: YXEGTFTSDYSIXLEKQAQXEFVEWLIKGGPSSGASLRHYYNWLTRQRY
modifications: Aib at 2, 13, 20; K28 side chain carries C20DA-gGlu-gGlu-gGlu-gGlu-gGlu-gGlu-eLys; C-terminal amide
B2: Compound 218 (peptide)
peptide: B1 peptide with E21A, W43X
modifications: Aib at 2, 13, 20, 43; K28 side chain carries C20DA-gGlu-gGlu-gGlu-gGlu-gGlu-gGlu-eLys; C-terminal amide
B3: Compound 229 (peptide)
peptide: B1 peptide with E21A
modifications: Aib at 2, 13, 20; K28 side chain carries C20DA-gGlu-gGlu-gGlu-gGlu-gGlu-OEG-OEG; C-terminal amide
B4: Compound 228 (peptide)
peptide: B1 peptide with E21A, E24Q, S33E
modifications: Aib at 2, 13, 20; K28 side chain carries C20DA-gGlu-gGlu-gGlu-gGlu-gGlu-OEG-OEG; C-terminal amide
B5: Compound 222 (peptide)
peptide: B1 peptide with E21A, S33E
modifications: Aib at 2, 13, 20; NMeQ (N-methyl-L-glutamine) at 47; K28 side chain carries C20DA-gGlu-gGlu-gGlu-gGlu-gGlu-gGlu-eLys; C-terminal amide
B6: Compound 221 (peptide)
peptide: B1 peptide with E21A
modifications: Aib at 2, 13, 20; K28 side chain carries C20DA-gGlu-gGlu-gGlu-gGlu-gGlu-gGlu-eLys; C-terminal amide
B7: Compound 220 (peptide)
peptide: B1 peptide with E21A, E24Q, S33E
modifications: Aib at 2, 13, 20; K28 side chain carries C20DA-gGlu-gGlu-gGlu-gGlu-gGlu-gGlu-eLys; C-terminal amide
B8: Compound 217 (peptide)
peptide: B1 peptide with E21A, S33E, G34Y, A35V
modifications: Aib at 2, 13, 20; K28 side chain carries C20DA-gGlu-gGlu-gGlu-gGlu-gGlu-gGlu-eLys; C-terminal amide
B9: Compound 227 (peptide)
peptide: B1 peptide with E21A, S33E, A35Q
modifications: Aib at 2, 13, 20; K28 side chain carries C20DA-gGlu-gGlu-gGlu-gGlu-gGlu-gGlu-eLys; C-terminal amide
B10: Compound 216 (peptide)
peptide: B1 peptide with X20R, E21A
modifications: Aib at 2, 13; D-Arg at 20; K28 side chain carries C20DA-gGlu-gGlu-gGlu-gGlu-gGlu-gGlu-eLys; C-terminal amide

Assays:
Test in all cases: cell-based or functional assay
NPY2 receptor = target: T1, NPY2 receptor (human (printed as hNPY2R), UniProt P49146 1-381)
T1 sequence (looked up): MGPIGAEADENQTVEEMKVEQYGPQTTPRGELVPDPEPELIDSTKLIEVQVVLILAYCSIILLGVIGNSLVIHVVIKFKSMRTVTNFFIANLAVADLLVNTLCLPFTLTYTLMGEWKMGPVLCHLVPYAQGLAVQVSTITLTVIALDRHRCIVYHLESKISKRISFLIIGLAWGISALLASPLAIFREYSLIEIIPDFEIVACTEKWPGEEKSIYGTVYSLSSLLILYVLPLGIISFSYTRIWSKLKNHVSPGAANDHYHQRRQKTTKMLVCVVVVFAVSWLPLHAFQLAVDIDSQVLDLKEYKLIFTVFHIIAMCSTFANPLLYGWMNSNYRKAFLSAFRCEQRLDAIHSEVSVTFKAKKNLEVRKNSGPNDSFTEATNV

GIP receptor = target: T2, GIP receptor (human (printed as hGIPR), UniProt P48546 22-466)
T2 sequence (looked up): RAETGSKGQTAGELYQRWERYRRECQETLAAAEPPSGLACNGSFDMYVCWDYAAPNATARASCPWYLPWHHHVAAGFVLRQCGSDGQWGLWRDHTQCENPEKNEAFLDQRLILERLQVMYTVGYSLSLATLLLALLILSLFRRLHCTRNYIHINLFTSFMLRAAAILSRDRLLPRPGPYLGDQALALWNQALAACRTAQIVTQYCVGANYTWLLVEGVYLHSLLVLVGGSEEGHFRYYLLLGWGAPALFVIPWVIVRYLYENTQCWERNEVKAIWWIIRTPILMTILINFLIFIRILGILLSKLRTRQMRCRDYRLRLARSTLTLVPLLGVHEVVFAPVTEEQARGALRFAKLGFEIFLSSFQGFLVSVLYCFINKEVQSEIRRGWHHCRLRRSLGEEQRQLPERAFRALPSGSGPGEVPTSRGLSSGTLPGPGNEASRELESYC

GLP-1 receptor = GLP-1 receptor (human (printed as hGLP1R), UniProt P43220 24-463)

Binder	EC50 hNPY2R 0.5% hP (CreLuc) (NPY2 receptor) [nM]	EC50 hNPY2R 100% hP (CreLuc) (NPY2 receptor) [nM]	EC50 hGIPR 0.5% hP (CreLuc) (GIP receptor) [nM]	EC50 hGIPR 100% hP (CreLuc) (GIP receptor) [nM]	EC50 hGLP1R 0.5% hP (CreLuc) (GLP-1 receptor) [nM]	EC50 hGLP1R 100% hP (CreLuc) (GLP-1 receptor) [nM]
Y[Aib]EGTFTSDYSI[Aib]LEKQAQ[Aib]AFVQWLIK([εLys-γGlu-γGlu-γGlu-γGlu-γGlu-γGlu-γGlu-C20 diacid])GGPSEGASLRHYYNWLTRQRY-NH2 (also: TFA salt) [Compound 224]	10.6	31.6	0.43	1.35	0.13	3.24
Y[Aib]EGTFTSDYSI[Aib]LEKQAQ[Aib]AFVQWLIK([γGlu-γGlu-γGlu-γGlu-γGlu-γGlu-C20 diacid])GGPSEGASLRHYYNWLTRQRY-NH2 (also: TFA salt) [Compound 223]	13.2	57.5	0.39	3.16	0.18	4.39
Y[Aib]EGTFTSDYSI[Aib]LEKQAQ[Aib]AFVEWLIK([εLys-γGlu-γGlu-γGlu-γGlu-γGlu-γGlu-γGlu-C20 diacid])GGPSSGASLRHYYNWLTRQRY-NH2 (also: TFA salt) [Compound 225]	14.9	50.2	0.28	1.23	0.12	1.93
Y[Aib]EGTFTSDYSI[Aib]LEKQAE[Aib]AFVQWLIK([AEEA-AEEA-γGlu-γGlu-γGlu-γGlu-C20 diacid])GGPSEGASLRHYYNWLTRQRY-NH2 (also: TFA salt) [Compound 219]	12.8	43.4	0.46	2.43	0.61	16.1
Y[Aib]EGTFTSDYSI[Aib]LEKQAQ[Aib]AFVEWLIK([AEEA-AEEA-γGlu-γGlu-γGlu-γGlu-C20 diacid])GGPSEPASLRHYYNWLTRQRY-NH2 (also: TFA salt) [Compound 226]	11.4	46.2	0.43	2.6	0.24	7.6
B1	12.4	22.5	0.5	2.94	0.66	14
B2	87.4	623	0.36	2.35	0.16	3.3
B3	10.8	27.2	0.22	1.42	0.1	3.31
B4	9.6	30.1	0.23	1.52	0.12	4.18
B5	13.3	41.6	0.19	1.85	0.24	4.43
B6	12.4	49.3	0.14	0.92	0.11	2.23
B7	10.2	42.6	0.29	1.83	0.17	5.28
B8	18.6	35.4	0.74	8.85	1.34	17.2
B9	10.2	44.2	0.06	1.23	0.13	3.07
B10	2.81	16.8	9.45	64.2	0.31	10.6
